# B1: Serine/threonine-protein kinase Chk1 (Homo sapiens), O14757 (parent)
# chain: MAVPFVEDWDLVQTLGEGAYGEVQLAVNRVTEEAVAVKIVDMKRAVDCPENIKKEICINKMLNHENVVKFYGHRREGNIQYLFLEYCSGGELFDRIEPDIGMPEPDAQRFFHQLMAGVVYLHGIGITHRDIKPENLLLDERDNLKISDFGLATVFRYNNRERLLNKMCGTLPYVAPELLKRREFHAEPVDVWSCGIVLTAMLAGELPWDQPSDSCQEYSDWKEKKTYLNPWKKIDSAPLALLHKILVENPSARITIPDIKKDRWYNKPLKKGAKRPRVTSGGVSESPSGFSKHIQSNLDFSPVNSASSEENVKYSSSQPEPRTGLSLWDTSPSYIDKLVQGISFSQPTCPDHMLLNSQLLGTPGSSQNPWQRLVKRMTRFFTKLDADKSYQCLKETCEKLGYQWKKSCMNQVTISTTDRRNNKLIFKVNLLEMDDKILVDFRLSKGDGLEFKRHFLKIKGKLIDIVSSQKIWLPAT
# partner: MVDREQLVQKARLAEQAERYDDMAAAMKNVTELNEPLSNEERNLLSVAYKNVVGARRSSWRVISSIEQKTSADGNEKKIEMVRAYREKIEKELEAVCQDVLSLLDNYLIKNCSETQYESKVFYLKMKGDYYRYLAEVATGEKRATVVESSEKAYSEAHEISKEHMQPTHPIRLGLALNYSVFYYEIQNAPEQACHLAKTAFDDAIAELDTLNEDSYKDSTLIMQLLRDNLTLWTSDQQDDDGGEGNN
# Variants of: B1
# Details: with 1433g_human YWHAG
row,effect of a mutation on the interaction,Variant
1,disrupting interaction,K38M

# Variants of: B1
# Details: with 1433g_human YWHAG
# Remark: another data set of the same source
row,effect of a mutation on the interaction,Variant
1,disrupting interaction,S296A

# Reference: IntAct's records for PubMed 20639859
